Experiments:
[1] = target: T1, mutated human CRTH2 with amino acid substitution (Homo sapiens, UniProt Q9Y5Y4, D171A/I173A/T172A); test: Epitope analysis using CHO-S cells which express mutated human CRTH2 with amino acid substitution; type: binding; conditions: mutant D171A, T172A, and I173A; antibody 10 μg/mL; relative to wild-type = 100%
T1 construct: inserting genes encoding various mutants with amino acid substitution obtained by deleting termination codons; expressed in transfected cells; host or cells: CHO-S cells (Lifetechnologies), transient (phmAG1-MNLinker vector)
T1 sequence (Q9Y5Y4 1-395 D171A/T172A/I173A): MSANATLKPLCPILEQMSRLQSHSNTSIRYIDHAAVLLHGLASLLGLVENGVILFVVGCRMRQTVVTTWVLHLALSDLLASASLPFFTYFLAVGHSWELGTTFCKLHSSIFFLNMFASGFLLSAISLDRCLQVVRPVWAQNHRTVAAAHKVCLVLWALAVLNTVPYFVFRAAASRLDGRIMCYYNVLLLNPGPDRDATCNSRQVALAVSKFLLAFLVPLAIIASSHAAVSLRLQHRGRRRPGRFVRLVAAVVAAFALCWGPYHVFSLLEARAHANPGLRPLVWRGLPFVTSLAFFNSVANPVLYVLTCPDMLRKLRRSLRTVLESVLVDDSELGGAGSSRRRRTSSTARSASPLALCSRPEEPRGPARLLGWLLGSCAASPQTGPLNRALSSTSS
Summary of the method: (§1)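 CHO-S cells transiently expressing alanine-substituted human CRTH2 extracellular mutants, C-terminally Azami-Green tagged, 24 h post-transfection. Antibodies at 10 μg/mL, 4 °C 1 h, then Alexa647 anti-IgG secondary 4 °C 1 h; flow cytometry on Azami-Green-positive cells. Reactivity = Alexa647 intensity divided by Azami-Green intensity.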

[2] = target: T2, mutated human CRTH2 with amino acid substitution (Homo sapiens, UniProt Q9Y5Y4, L187A/L188A/L189A); test: as above; type: binding; conditions: mutant L187A, L188A, and L189A; antibody 10 μg/mL; relative to wild-type = 100%
T2 construct: inserting genes encoding various mutants with amino acid substitution obtained by deleting termination codons; expressed in transfected cells; host or cells: CHO-S cells (Lifetechnologies), transient (phmAG1-MNLinker vector)
T2 sequence (Q9Y5Y4 1-395 L187A/L188A/L189A): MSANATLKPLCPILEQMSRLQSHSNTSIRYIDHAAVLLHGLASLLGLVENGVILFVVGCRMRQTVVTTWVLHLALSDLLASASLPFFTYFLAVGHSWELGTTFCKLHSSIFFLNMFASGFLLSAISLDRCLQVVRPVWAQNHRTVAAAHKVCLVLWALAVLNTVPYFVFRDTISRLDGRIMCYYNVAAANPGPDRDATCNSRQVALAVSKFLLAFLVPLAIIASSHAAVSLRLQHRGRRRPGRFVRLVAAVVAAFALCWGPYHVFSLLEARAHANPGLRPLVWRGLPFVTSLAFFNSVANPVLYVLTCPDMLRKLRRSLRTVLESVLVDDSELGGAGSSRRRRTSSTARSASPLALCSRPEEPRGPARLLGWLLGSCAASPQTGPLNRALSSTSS
Summary of the method: as §1

B1: LV0HV1: humanized Lym2 antibody, VL LV0 (SEQ ID NO: 33), VH HV1 (SEQ ID NO: 51) (antibody, V domains shown)
VH: EVQLVESGGGVVQPGRSLRLSCAASGFTFSNYYMAWVRQAPGKGLEWVATISYDGSSTYYRDSVKGRFTISRDNAKNSLYLQMNSLRAEDTATYYCARHRGYYYSGAGYFDYWGQGTMVTVSS
VL: DIVMTQTPLSLPVTPGESASISCRSSQSLEYSDGYTYLEWYLQKPGQSPQVLIYGVSNRFSGVPDRFSGSGSGTDFTLKISRVEAEDVGVYYCFQATHDPLTFGQGTKLEIK
[1]
  reactivity against cells expressing mutated human CRTH2: greatly decreased
[2]
  reactivity against cells expressing mutated human CRTH2: lost

From patent US10100120B2, “Antibody which specifically binds to human CRTH2” (KYOWA HAKKO KIRIN CO., LTD, priority 2015, dated 2018)
